The target of assay [1] is human endoglin (human) (UniProt P17813). As to the kind of experiment: cell-based or functional assay.
The target is the same in assay [2]. In words: FACS on HUVEC, half-maximal fluorescence.
Assay [3] has the same target. As to the kind of experiment: FACS, corrected fluorescence intensity grade, U937. A general note: A flow cytometer gives signals particle by particle.
The target is the same in assay [4]. In words: FACS, corrected fluorescence intensity grade, HUVEC.
Assay [5] has the same target. In words: indirect immunofluorescence FACS on HUVEC, 10 µg/ml.
The target is the same in assay [6]. As to the kind of experiment: FACS, corrected fluorescence intensity grade, ECV-304.
Assay [7] shares this target. In words: FACS, corrected fluorescence intensity grade, A375M and T8.
Assay [8] has the same target. As to the kind of experiment: FACS, corrected fluorescence intensity grade, HT-1080 and SAOS-2.
Assay [9] has the same target. In words: FACS, corrected fluorescence intensity grade, MDA-MB-231 and SKBR3.
Assay [10] shares this target. As to the kind of experiment: FACS, corrected fluorescence intensity grade, L-endoglin transfectant.
Assay [11] has the same target. As to the kind of experiment: competition FACS on HUVEC; unlabelled TEC-4 against biotinylated TEC-11 (competitor), ratio 1:1.
Assay [12] shares this target. As to the kind of experiment: competition FACS on HUVEC; unlabelled TEC-4 against biotinylated TEC-11 (competitor), ratio 1:100.
The target is the same in assay [13]. In words: FACS, 20 µg/ml TEC-11, sorted Endoglin^hi fraction of postconfluent HUVEC; SD in parentheses.
Assay [14] shares this target. As to the kind of experiment: FACS, 20 µg/ml TEC-11, sorted Endoglin^lo fraction of postconfluent HUVEC; SD in parentheses.
The target is the same in assay [15]. As to the kind of experiment: competition FACS on HUVEC; unlabelled TEC-11 against biotinylated TEC-4 (competitor), ratio 1:1.

For “TEC-4 (tumor endothelial cell antibody 4)”, the complement-mediated lysis of HUVEC (guinea pig complement, trypan blue) with human endoglin (human) [1] was 48%. The EC50 with human endoglin (human) [2] was 4 µg/mL. For the same substance, the corrected fluorescence intensity (CFI) in the assay with human endoglin (human) [3] was 5 to 25 cfi; with human endoglin (human) [4], above 100 cfi; with human endoglin (human) [6] it was 25 to 50 cfi; with human endoglin (human) [7], 5 to 25 cfi; with human endoglin (human) [8], 5 to 25 cfi; with human endoglin (human) [9], 5 to 25 cfi. The corrected fluorescence intensity (CFI) with human endoglin (human) [10] is 50 to 100 cfi. Also, the specific mean fluorescence intensity (MFI) in the assay with human endoglin (human) [5] was 200. The percent blocking of biotinylated TEC-11 with human endoglin (human) [11] was found to be 1%; with human endoglin (human) [12] it was 20%.
“TEC-11 (tumor endothelial cell antibody 11)” gave a complement fixation relative to TEC-4 in the assay with human endoglin (human) [1] of 100 fold. Also, the complement-mediated lysis of HUVEC (guinea pig complement, trypan blue) with human endoglin (human) [1] is above 50%. This substance displayed an EC50 with human endoglin (human) [2] of 0.4 µg/mL. Moreover, the corrected fluorescence intensity (CFI) with human endoglin (human) [3] was 5 to 25 cfi; with human endoglin (human) [4], above 100 cfi; with human endoglin (human) [6], 25 to 50 cfi; in the assay with human endoglin (human) [7], 5 to 25 cfi; with human endoglin (human) [8], 5 to 25 cfi; in the assay with human endoglin (human) [9], 5 to 25 cfi. In the assay with human endoglin (human) [10], this substance had a corrected fluorescence intensity (CFI) of 50 to 100 cfi. In the assay with human endoglin (human) [5], this substance showed a specific mean fluorescence intensity (MFI) of 200. The MFI in the assay with human endoglin (human) [13] is 270; with human endoglin (human) [14], 61.6. For the same substance, the percent blocking of biotinylated TEC-4 in the assay with human endoglin (human) [15] was 51%.

For orientation: EC50 means the concentration that produces a half-maximal response. Low values mean a more potent agent, high ones a less potent agent.

The values above are taken from patent publication US6451312.
